Target: T1, alpha-fetoprotein (AFP) (UniProt P02771 19-609)
T1 sequence: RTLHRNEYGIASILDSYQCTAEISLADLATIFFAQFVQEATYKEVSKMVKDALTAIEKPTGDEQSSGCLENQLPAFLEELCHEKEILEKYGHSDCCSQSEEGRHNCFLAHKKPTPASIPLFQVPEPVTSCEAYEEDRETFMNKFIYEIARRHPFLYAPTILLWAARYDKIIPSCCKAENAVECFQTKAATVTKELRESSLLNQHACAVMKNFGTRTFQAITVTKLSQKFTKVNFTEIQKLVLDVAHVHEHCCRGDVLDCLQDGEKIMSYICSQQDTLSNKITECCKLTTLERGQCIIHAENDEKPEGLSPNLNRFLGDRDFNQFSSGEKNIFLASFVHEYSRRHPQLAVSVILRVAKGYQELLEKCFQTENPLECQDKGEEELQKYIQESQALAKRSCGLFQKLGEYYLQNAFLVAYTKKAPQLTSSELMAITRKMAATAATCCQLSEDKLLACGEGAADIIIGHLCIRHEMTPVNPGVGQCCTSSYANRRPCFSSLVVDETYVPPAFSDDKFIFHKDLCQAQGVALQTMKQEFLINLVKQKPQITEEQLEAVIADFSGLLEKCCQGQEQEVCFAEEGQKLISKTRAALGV
Assay: electrochemical sandwich assay (DPV, methylene blue read-out); AFP 50 ng/ml captured by anti-AFP; aptamer 10 uM; MB 10 mM; DPV in 0.010 M PBS pH 7.4 (performance section prints 0.0010 M); aptamer 10 uM, 40 min; temperature not given
Details: protein: commercial

GTGACGCTCCTAACGCTGACTCAGGTGCAGTTCTCGACTCGGTCTT (ssDNA) [AFP aptamer]: binds.
